Reference: US20130236458A1 (AbbVie / Abbott, published 2013)
Values belong to the binder of their own block, whether it stands above or below them.

Key:
[1] = target: T1, Recombinant Human IL-13 (human, UniProt P35225 35-146, limits assumed); assay: SPR (Biacore)
T1 construct: bought reagent
Summary of the method: (§1)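 Antibodies or DVD-Ig captured on anti-mouse IgG (Fcγ) CM5 surface; antigen injected at 10–200 nM in HBS-EP, pH 7.4, 25 °C, 25 µL/min. kon and koff from global 1:1 Langmuir fit; KD = koff/kon.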

[2] = target: T2, Recombinant Human IL-17 (human, UniProt Q16552 20-155, limits assumed); assay: SPR (Biacore)
T2 construct: bought reagent; also called IL-17A
T2 sequence (looked up): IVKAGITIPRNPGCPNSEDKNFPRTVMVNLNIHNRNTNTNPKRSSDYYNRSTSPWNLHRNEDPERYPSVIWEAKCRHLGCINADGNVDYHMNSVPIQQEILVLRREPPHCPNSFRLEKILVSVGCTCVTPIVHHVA
Summary of the method: as §1

[3] = target: T1, Recombinant Human IL-13; assay: cell-based or functional assay
[4] = target: T2, Recombinant Human IL-17; assay: cell-based or functional assay

T1 sequence (P35225 35-146 limits assumed): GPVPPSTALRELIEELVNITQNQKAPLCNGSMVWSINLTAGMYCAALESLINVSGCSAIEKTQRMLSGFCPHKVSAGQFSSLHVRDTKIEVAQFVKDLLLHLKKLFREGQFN

B2: DVD2168 (bispecific antibody)
VH: EVQLVQSGAEVKKPGASVKVSCKASGYTFTTYGVSWVRQAPGQGLEWMGEIYPGNYNTYYNEKFRGRVTMTTDTSTSTAYMELRSLRSDDTAVYYCARWRTSYFSDYGYFDYWGQGTTVTVSSASTKGPEVQLVQSGAEVKKPGSSVKVSCKASGYTFTDYEIHWVRQAPGQGLEWMGVNDPESGGTFYNQKFDGRVTLTADESTSTAYMELSSLRSEDTAVYYCTRYSKWDSFDGMDYWGQGTTVTVSS
VL: DVVMTQSPLSLPVTLGQPASISCRSSQSLVHSHGNTYLHWYQQRPGQSPRLLIYTVSNRFSGVPDRFSGSGSGTDFTLKISRVEAEDVGVYYCSQSTHVPYTFGGGTKVEIKRTVAAPSVFIFPPDIQMTQSPSSLSASVGDRVTITCRASSGIISYIDWFQQKPGKAPKRLIYATFDLASGVPSRFSGSGSGTDYTLTISSLQPEDFATYYCRQVGSYPETFGQGTKLEIKR
notes: DVD-Ig; also called DVD2168H; DVD2168L
Kd [1]: 0.054 nM | koff [1]: 3.7e-05 s⁻¹ | kon [1]: 680000 M⁻¹ s⁻¹ | Kd [2]: < 0.0025 nM | koff [2]: < 1e-06 s⁻¹ | kon [2]: 400000 M⁻¹ s⁻¹ | N-Terminal VD IL13 Neutralization Assay IC50 [3]: 0.119 nM | C-Terminal VD IL17 Neutralization Assay IC50 [4]: 0.0025 nM

B4: DVD2173 (bispecific antibody)
VH: EVQLVQSGAEVKKPGSSVKVSCKASGGSFGGYGIGWVRQAPGQGLEWMGGITPFFGFADYAQKFQGRVTITADESTTTAYMELSGLTSDDTAVYYCARDPNEFWNGYYSTHDFDSWGQGTTVTVSSASTKGPEVQLVQSGAEVKKPGASVKVSCKASGYTFTTYGVSWVRQAPGQGLEWMGEIYPGNYNTYYNEKFRGRVTMTTDTSTSTAYMELRSLRSDDTAVYYCARWRTSYFSDYGYFDYWGQGTTVTVSS
VL: EIVLTQSPDFQSVTPKEKVTITCRASQDIGSELHWYQQKPDQPPKLLIKYASHSTSGVPSRFSGSGSGTDFTLTINGLEAEDAGTYYCHQTDSLPYTFGPGTKVDIKRTVAAPDVVMTQSPLSLPVTLGQPASISCRSSQSLVHSHGNTYLHWYQQRPGQSPRLLIYTVSNRFSGVPDRFSGSGSGTDFTLKISRVEAEDVGVYYCSQSTHVPYTFGGGTKVEIKR
notes: DVD-Ig; also called DVD2173H; DVD2173L
Kd [1]: 0.12 nM | koff [1]: 3.7e-05 s⁻¹ | kon [1]: 310000 M⁻¹ s⁻¹ | Kd [2]: 0.0036 nM | koff [2]: 9e-06 s⁻¹ | kon [2]: 2.5e+06 M⁻¹ s⁻¹ | C-Terminal VD IL13 Neutralization Assay IC50 [3]: 2.14 nM | N-Terminal VD IL17 Neutralization Assay IC50 [4]: 0.008 nM

B5: DVD2165 (bispecific antibody)
VH: EVQLVQSGAEVKKPGESVKISCKASGGSFRSYGISWVRQAPGQGLEWMGGITHFFGITDYAQKFQGRVTITADESTTTAYMELSGLTSDDTAVYYCAREPNDFWNGYYDTHDFDSWGQGTTVTVSSASTKGPSVFPLAPEVTLRESGPGLVKPTQTLTLTCTLYGFSLSTSDMGVDWIRQPPGKGLEWLAHIWWDDVKRYNPALKSRLTISKDTSKNQVVLKLTSVDPVDTATYYCARTVSSGYIYYAMDYWGQGTLVTVSS
VL: EIVLTQSPDFQSVTPKEKVTITCRASQNIGSELHWYQQKPDQSPKLLIKYASHSISGVPSRFSGSGSGTDFTLTINGLEAEDAATYYCHQSDTLPHTFGQGTKVDIKRTVAAPDIQMTQSPSSLSASVGDRVTISCRASQDIRNYLNWYQQKPGKAPKLLIFYTSKLHSGVPSRFSGSGSGTDYTLTISSLQPEDIATYYCQQGLTPPLTFGGGTKVEIKR
notes: DVD-Ig; also called DVD2165H; DVD2165L
Kd [1]: 0.22 nM | koff [1]: 5.7e-05 s⁻¹ | kon [1]: 260000 M⁻¹ s⁻¹ | Kd [2]: 0.014 nM | koff [2]: 3.2e-05 s⁻¹ | kon [2]: 2.3e+06 M⁻¹ s⁻¹ | C-Terminal VD IL13 Neutralization Assay IC50 [3]: 0.355 nM | N-Terminal VD IL17 Neutralization Assay IC50 [4]: 0.0133 nM

B6: DVD2167 (bispecific antibody)
VH: EVQLVQSGAEVKKPGSSVKVSCKASGYTFTDYEIHWVRQAPGQGLEWMGVNDPESGGTFYNQKFDGRVTLTADESTSTAYMELSSLRSEDTAVYYCTRYSKWDSFDGMDYWGQGTTVTVSSASTKGPEVQLVQSGAEVKKPGASVKVSCKASGYTFTTYGVSWVRQAPGQGLEWMGEIYPGNYNTYYNEKFRGRVTMTTDTSTSTAYMELRSLRSDDTAVYYCARWRTSYFSDYGYFDYWGQGTTVTVSS
VL: DIQMTQSPSSLSASVGDRVTITCRASSGIISYIDWFQQKPGKAPKRLIYATFDLASGVPSRFSGSGSGTDYTLTISSLQPEDFATYYCRQVGSYPETFGQGTKLEIKRTVAAPDVVMTQSPLSLPVTLGQPASISCRSSQSLVHSHGNTYLHWYQQRPGQSPRLLIYTVSNRFSGVPDRFSGSGSGTDFTLKISRVEAEDVGVYYCSQSTHVPYTFGGGTKVEIKR
notes: DVD-Ig; also called DVD2167H; DVD2167L
Kd [1]: < 0.048 nM | koff [1]: < 1e-06 s⁻¹ | kon [1]: 21000 M⁻¹ s⁻¹ | Kd [2]: < 0.00037 nM | koff [2]: < 1e-06 s⁻¹ | kon [2]: 2.7e+06 M⁻¹ s⁻¹ | C-Terminal VD IL13 Neutralization Assay IC50 [3]: 1.7 nM | N-Terminal VD IL17 Neutralization Assay IC50 [4]: 0.0029 nM

Further lines, results first:

Kd [1]: 0.034 nM | koff [1]: 2.6e-05 s⁻¹ | kon [1]: 760000 M⁻¹ s⁻¹ | Kd [2]: 0.075 nM | koff [2]: 9.4e-06 s⁻¹ | kon [2]: 130000 M⁻¹ s⁻¹ | N-Terminal VD IL13 Neutralization Assay IC50 [3]: 0.089 nM | C-Terminal VD IL17 Neutralization Assay IC50 [4]: 0.0164 nM
B1: DVD2166 (bispecific antibody)
VH: B2 VH
VL: DVVMTQSPLSLPVTLGQPASISCRSSQSLVHSHGNTYLHWYQQRPGQSPRLLIYTVSNRFSGVPDRFSGSGSGTDFTLKISRVEAEDVGVYYCSQSTHVPYTFGGGTKVEIKRTVAAPDIQMTQSPSSLSASVGDRVTITCRASSGIISYIDWFQQKPGKAPKRLIYATFDLASGVPSRFSGSGSGTDYTLTISSLQPEDFATYYCRQVGSYPETFGQGTKLEIKR
notes: DVD-Ig; also called DVD2166H; DVD2166L

Kd [1]: 0.033 nM | koff [1]: 2.9e-05 s⁻¹ | kon [1]: 890000 M⁻¹ s⁻¹ | Kd [2]: 26 nM | koff [2]: 0.00017 s⁻¹ | kon [2]: 6800 M⁻¹ s⁻¹ | N-Terminal VD IL13 Neutralization Assay IC50 [3]: 0.111 nM | C-Terminal VD IL17 Neutralization Assay IC50 [4]: 0.678 nM
B3: DVD2172 (bispecific antibody)
VH: EVQLVQSGAEVKKPGASVKVSCKASGYTFTTYGVSWVRQAPGQGLEWMGEIYPGNYNTYYNEKFRGRVTMTTDTSTSTAYMELRSLRSDDTAVYYCARWRTSYFSDYGYFDYWGQGTTVTVSSASTKGPEVQLVQSGAEVKKPGSSVKVSCKASGGSFGGYGIGWVRQAPGQGLEWMGGITPFFGFADYAQKFQGRVTITADESTTTAYMELSGLTSDDTAVYYCARDPNEFWNGYYSTHDFDSWGQGTTVTVSS
VL: DVVMTQSPLSLPVTLGQPASISCRSSQSLVHSHGNTYLHWYQQRPGQSPRLLIYTVSNRFSGVPDRFSGSGSGTDFTLKISRVEAEDVGVYYCSQSTHVPYTFGGGTKVEIKRTVAAPEIVLTQSPDFQSVTPKEKVTITCRASQDIGSELHWYQQKPDQPPKLLIKYASHSTSGVPSRFSGSGSGTDFTLTINGLEAEDAGTYYCHQTDSLPYTFGPGTKVDIKR
notes: DVD-Ig; also called DVD2172H; DVD2172L

Kd [1]: < 0.005 nM | koff [1]: < 1e-06 s⁻¹ | kon [1]: 200000 M⁻¹ s⁻¹ | Kd [2]: 0.011 nM | koff [2]: 2.1e-05 s⁻¹ | kon [2]: 1.9e+06 M⁻¹ s⁻¹ | C-Terminal VD IL13 Neutralization Assay IC50 [3]: 0.506 nM | N-Terminal VD IL17 Neutralization Assay IC50 [4]: 0.0011 nM
B7: DVD2171 (bispecific antibody)
VH: EVQLVQSGAEVKKPGSSVKVSCKASGYTFTDYEIHWVRQAPGQGLEWMGVNDPESGGTFYNQKFDGRVTLTADESTSTAYMELSSLRSEDTAVYYCTRYSKWDSFDGMDYWGQGTTVTVSSASTKGPSVFPLAPEVQLVQSGAEVKKPGASVKVSCKASGYTFTTYGVSWVRQAPGQGLEWMGEIYPGNYNTYYNEKFRGRVTMTTDTSTSTAYMELRSLRSDDTAVYYCARWRTSYFSDYGYFDYWGQGTTVTVSS
VL: B6 VL
notes: DVD-Ig; also called DVD2171H; DVD2171L
